Data reported in US20240270826A1.
Where “and” joins values, the source holds several entries; their conditions need not be identical. Equal values may be shown once. Read-outs that look alike come from different tables or passages of the source.

Experiments:
[1] = molecular target: SARS-CoV-2 S1-RBD fused to human Fc (S1-RBD-Fc) (SARS-CoV-2 Wuhan; human); assay: SPR, antigen on chip
[2] = molecular target: SARS-CoV-2 spike trimer S (Wuhan, SmT1) (SARS-CoV-2 Wuhan); assay: SPR, antigen on chip
[3] = molecular target: SARS-CoV-2 S1 (aa16-685) (Wuhan) (SARS-CoV-2 Wuhan) (UniProt P0DTC2); assay: SPR, antigen on chip
[4] = molecular target: Human SARS-CoV-2_Wuhan S (SmT1) (SARS-CoV-2 (Wuhan)) (UniProt P0DTC2)
[5] = molecular target: Human SARS-CoV-2_Wuhan S (SmT1) (SARS-CoV-2 (Wuhan)) (UniProt P0DTC2); assay: flow cytometry SVNA, VHH vs biotin-S binding to Vero E6 ACE2
[6] = molecular target: Human SARS-CoV-2_Wuhan S (SmT1) (SARS-CoV-2 (Wuhan)) (UniProt P0DTC2); assay: SPR, VHH over immobilised S
[7] = molecular target: SARS-CoV spike (S) (SARS-CoV) (UniProt P59594); assay: SPR, VHH over immobilised S
[8] = molecular target: SARS-CoV-2 spike protein S on live virus, Wuhan (strain SARS-CoV-2/Canada/VIDO-01/2020) (SARS-CoV-2 (Wuhan)) (UniProt P0DTC2); assay: cell-based or functional assay
[9] = molecular target: Human SARS-CoV-2_Wuhan S (SmT1) (SARS-CoV-2 (Wuhan)) (UniProt P0DTC2); assay: tandem SPR, immobilized S, orientation 1: VHH alone
[10] = molecular target: SARS-CoV-2 S1-RBD fused to human Fc (S1-RBD-Fc) (SARS-CoV-2 Wuhan; human); assay: SPR, antigen on chip; remark: listed apart in the source
[11] = molecular target: SARS-CoV-2 spike trimer S (Wuhan, SmT1) (SARS-CoV-2 Wuhan); assay: SPR, antigen on chip; remark: listed apart in the source
[12] = molecular target: SARS-CoV-2 S1 (aa16-685) (Wuhan) (SARS-CoV-2 Wuhan) (UniProt P0DTC2); assay: SPR, antigen on chip; remark: listed apart in the source
[13] = molecular target: Human SARS-CoV-2_Wuhan S (SmT1) (SARS-CoV-2 (Wuhan)) (UniProt P0DTC2); assay: flow cytometry SVNA, VHH-Fc vs biotin-S binding to Vero E6 ACE2
[14] = molecular target: Human SARS-CoV-2_Wuhan S (SmT1) (SARS-CoV-2 (Wuhan)) (UniProt P0DTC2); assay: flow cytometry SVNA: VHH-Fc inhibits S binding to ACE2 on Vero E6 cells
[15] = molecular target: Human SARS-CoV S (SARS-CoV) (UniProt P59594); assay: as above
[16] = molecular target: SARS-CoV-2 S on CHO-S cells (SARS-CoV-2) (UniProt P0DTC2); assay: flow cytometry, CHO-S cells

## VHH-72 VHH
[1]
  Kd: 200 nM
  koff: 0.134 s⁻¹
  kon: 667000 M⁻¹ s⁻¹
[2]
  Kd: 142 nM
  koff: 0.156 s⁻¹
  kon: 1.1e+06 M⁻¹ s⁻¹
[3]
  Kd: 156 nM
  koff: 0.146 s⁻¹
  kon: 940000 M⁻¹ s⁻¹
[4]
  End 2nd inj (RU): 37.8 RU and 51.2 RU
[5]
  IC50: 59 nM
  IC99: 9.41 µM
  Imax %: 43%
[6]
  Kd: 86.2 nM
  koff: 0.106 s⁻¹
  kon: 1.23e+06 M⁻¹ s⁻¹
[7]
  Kd: 6.52 nM
  koff: 0.00656 s⁻¹
  kon: 1.01e+06 M⁻¹ s⁻¹
[8]
  MN100: 156 nM
[9]
  End 1st inj (RU): 25.8 RU
[10]
  Kd: 185 nM
  koff: 0.126 s⁻¹
  kon: 682000 M⁻¹ s⁻¹
[11]
  koff: 0.15 s⁻¹
  kon: 1.06e+06 M⁻¹ s⁻¹
[12]
  Kd: 194 nM
  koff: 0.161 s⁻¹
  kon: 830000 M⁻¹ s⁻¹

## VHH-72 VHH-Fc (Fc fusion)
[13]
  IC50: 7.2 nM
  IC99: 238 nM
  Imax %: 57%
[14]
  IC50: 5.6 nM
[15]
  IC50: 7.8 nM
[16]
  Bmax: 8030
  EC50: 0.2 nM
[8]
  LVNA IC50: 8.46 nM
  MN100: 1.25 nM
